From US20210292393A1 (published 2021)

B1: antibody 514 (antibody, V domains shown)
VH: EVQLVQSGAEVKKPGATVKISCKVSGYTFTDYYMHWVQQAPGKGLEWMGLVDPEDGETIYAEKFQGRVTITADTSTDTAYMELSSLRSEDTAVYYCATDCKYDILTGHYSAGYYYYGMDVWGQGTTVTVSS
VL: DIQMTQSPSSLSASVGDRVTITCRASQGISNYLAWFQQKPGKAPKSLIYAASSLQSGVPSKFSGSGSGTDFTLTISSLQPEDFATYYCQQYNSYPFTFGGGTKVEIK
B2: antibody 497 (antibody, V domains shown)
VH: QVQLQESGPGLVKPSQTLSLTCTVSGGSINSFGYYWSWIRQHPGKGLEWIGYIYYSGSTDYNPSLNSRVTISLDTSKNQFLLKLTSVTAADTAVYYCAKLTDYYDSSGYSFDYWGQGTLVTVSS
VL: DIQMTQSPSSVSASVGDRVTITCRASQDISRWLAWYQQKPGKAPKLLIYAASSLQSGVPSRFSGRGSGTELTLTISSLQPEDFATYFCQQAYSFPFTFGGGTKVEIK
B3: antibody 496 (antibody, V domains shown)
VH: QVQLVQSGAEVKKPGASVKVSCKASGYTFTDYYIHWVRQAPGQGLEWMGWINPNSGGTNYAQKFQGRLTMTRDTSISTAYMELSRLRSDDTAVYYCARVYSMFREFIINPYYYYYGLDVWGQGTTVTVSS
VL: QSALTQPASVSGSPRQSITISCTGTSSDVGSYNLVSWYQQHPGKAPKLMIYEGSKRPSGVSNRFSGSKSGNTASLAISGLQAEDEANYYCCSYAGSSTLVFGGGTKLTVL
B4: antibody 487 (antibody, V domains shown)
VH: QVQLQESGPGLVKPSQTLSLTCTVSGGSISSGGYYWSWIRQHPGKGLEWIGYIYYSGSTYYNPSLKSRVTISVDTSKNQFSLKLSSVTAADTAVYYCARGPLDFWSGYFRLRYFDCWGQGTLVTVSS
VL: QSALTQPASVSGSPGQSITISCTGTSSDVGGYNYVSWYQQHPGKAPKLMIYDVTNRPSGVSNRFSGSKSGNTASLTISGLQAEDEADYYCSSYTSSSTCVFGTGTKVTVL
B5: antibody 507 (antibody, V domains shown)
VH: QVQLQESGPGLVKPSGTLSLTCAVSGGSISSSNWWSWVRQPPGKGLEWIGEIYHSGNTNYNPSLKSRVTISVDKSKNQFSLKLSSVTAADTAVYYCARREWLRLFDYWGQGTLVTVSS
VL: QSALTQPASVSGSPGQSITISCTGTSSDVGSYNLVSWYQQHPGKAPKLMIYEVSKRPSGVSNRFSGSKSGNTASLTISGLQAEDEADYYCCSYAGSSTYVFGTGTKVTVL
B6: antibody 510 (antibody, V domains shown)
VH: QVQLQESGPGLVKPSQTLSLTCTVSGGSISSGSYYWSWIRQPAGKGLEWIGRIYTSGSTNYNPSLKSRVTISVDTSKNQFSLKLSSVTAADTAVYYCAREGQWLYRFDYWGQGTLVTVSS
VL: QSALTQPASVSGSPGQSITISCTGTSSDVGNYDLVSWYQQHPGKAPKLVIYGVTKRPSGVSNRFSGSKSGNTASLTISGLQAEDEADYYCCSYATGDTSVFGTGTKVTVL
B7: antibody 498 (antibody, V domains shown)
VH: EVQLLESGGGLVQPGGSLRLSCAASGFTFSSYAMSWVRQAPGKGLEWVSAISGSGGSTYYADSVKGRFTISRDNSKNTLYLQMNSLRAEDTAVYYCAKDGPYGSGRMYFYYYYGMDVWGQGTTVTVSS
VL: QSALTQPASVSGSPGQSITISCTGTSSDVGSYNLVSWYQQHPGKAPKLMIYEGSKRPSGVSNRFSGSKSGNTASLTISGLQAEDEADYYCCSYAGSSTSFVVFGGGTKLTVL
B8: antibody 505 (antibody, V domains shown)
VH: EVQLVESGGGLVKPGGSLRLSCAASGFTFSSYSMNWVRQAPGKGLEWVSSISSSSSYIYYADSVKGRITISRDNAKNSLYLQMNSLRAEDTAVYYCAREYPNFRAEWLLSPYGMDVWGQGTTVTVSS
VL: QSALTQPASVSGSPGQSITISCTGTSSDVGSYNLVSWYQQHPGKAPKLMIYEVSKRPSGVSNRFSGSKSGNTASLTISGLQAEDEADYYCCSYAGSSTSVKVFGTGTKVTVL
B9: antibody 317 (antibody, V domains shown)
VH: QVQLVQSGAEVKKPGASVKVSCKVSGYTLTELSMHWVRQAPGKGLEWMGGFDPEDGETIYAQKFQGRVTMTEDTSTDTAYMELSSLRSEDTAVYYCASSPAAAGTSQYYYYYGMDVWGQGTTVTVSS
VL: not shown
B10: antibody 315 (antibody, V domains shown)
VH: QVQLVQSGSELKKPGASVKLSCQASGYSFTNHAMNWVRQAPGQGLEWMGWINTNTGNPTYAQGFTGRFVFSLDTSVSTTYLHISSLKAEDTAVYYCARASARPGVATNLDFWGQGTLVVVSS
VL: DIQMTQSPSSLSASVGDRVTITCRASQNIDNYLNWYQQKPGKAPKLLIYAASRLHSGVPSRFSGSGSGTDFTLIISSLQPEDLATYYCQQSYSNPLTFGPGTKVDIR
B11: antibody 294 (antibody, V domains shown)
VH: EVQLVESGGGLVQPGGSLRLSCAASGFTVSSNYMNWVRQAPGKGLEWVSVIYSGGSTYYADSVKGRFTISRDNSKNTLYLQMNSLRAEDTAVYYCARDLGPSGMDVWGQGTTVTVSS
VL: DIQMTQSPSSVSASVGDRVTITCRASQGISSWLAWYQQKPGKAPKLLIYAASSLQSGVPSRFSGSGSGTDFTLTISSLQPEDFATYYCQQANSFPLFGGGTKVEIK
B12: antibody 295 (antibody, V domains shown)
VH: QVQLQESGPGLVKPSQTLSLTCTVSGGSISSSDYYWSWIRQPPGKGLEWIGYIYYSGSTYYNPSLKSRVTISVDTSKNQFSLKLSSVTAADTAVYYCARVVGYCSSTSCYVDYWGQGTLVTVSS
VL: EIVLTQSPATLSLSPGERVTLSCRASQSVSSYLAWYQQKPGQAPRLLIYDASNRATGIPARFSGSGSGTDFTLTISSLEPEDFAVYYCQQRSNWPPGLTFGGGTKVEIK
B13: antibody 301 (antibody, V domains shown)
VH: QVQLVQSGAEVKKPGASVKVSCKVSGYTLTELSMHWVRQAPGKGLEWMGGFDPEDGETIYAQKFQGRVTMTEDTSTDTAYMELSSLRSEDTAVYYCATAFCGGDCYPPDALDIWGQGTMVTVSS
VL: DIQMTQSPSSVSASVGDRVTITCRASQGISSWLAWYQQKPGKAPKLLIYAASSLQSGVPSRFSGSGSGTDFTLTISSLQPEDFATYYCQQANSFPLTFGGGTKVEIK
B14: antibody 306 (antibody, V domains shown)
VH: QVQLVESGGGVVQPGRSLRLSCAASGFTFSSYGMHWVRQAPGKGLEWVAVIWYDGSNKYYADSVKGRFTISRDNSKNTLYLQMNSLRAEDTAVYYCAKDGGYCGGDCYSDGVDYWGQGTLVTVSS
VL: not shown
B15: antibody 299 (antibody, V domains shown)
VH: not shown
VL: EIVLTQSPATLSLSPGERATLSCRASQSVSSYLAWYQQKPGQAPRLLIYDASNRATGIPARFSGSGSGTDFTLTISSLEPEDFAVYYCQQRSNWPWTFGQGTKVEIK
B16: antibody 290 (antibody, V domains shown)
VH: QVHLVQSGAEVKKPGASVKVSCAASGYTFNNYGVSWVRQAPGQGLEWMGWISASNGNTKYAQNLQGRVTMTTDTSTSTAYMELRSLRSDDTAVYYCARDLVGPTAPNYYYGMDVWGQGTAVTVSS
VL: QSVLTQPPSVSGAPGQRVTISCTGSSSSIGAGYDVHWYQQLPGTAPKLLIYANSNRPSGVPDRLSGSKSGTSASLAITGLQAEDEADYYCQSYDSSLSGYVFGTGTKVTVL

Target: SARS-CoV spike protein (full-length trimeric, on beads) (SARS-CoV, UniProt P59594 14-1190)

| Binder | bead binding signal, fold over isotype control [fold over isotype] |
| --- | --- |
| B1 | 1.15 |
| B2 | 1.23 |
| B3 | 1.15 |
| B4 | 7.25 |
| B5 | 1.07 |
| B6 | 1.03 |
| B7 | 1.31 |
| B8 | 1.04 |

Target: full-length trimeric SARS-CoV spike protein (SARS-CoV, UniProt P59594 14-1190)

| Binder | median fluorescence intensity, fold over isotype control [fold over isotype] |
| --- | --- |
| B9 | 1.14 |
| B10 | 1.07 |
| B11 | 1.07 |
| B12 | 1.24 |
| B13 | 1.45 |
| B14 | 1.39 |
| B15 | 1.13 |
| B16 | 1.25 |
